The assay has as its target anti-BMP-7 antibodies of the commercial ELISA (R&D Systems ELISA Duoset Cat#DY354). The assay is described as follows: sandwich ELISA (R&D Systems BMP7 ELISA Cat#DY354), BMP-7 protein titrated, % ELISA signal; the EC50 column carries no unit, the concentration axis is in ug/mL.

B1: 492 (ligand)
BMP-7 mature domain: STGGKQRSQNRSKTPKNQEALRMASVAENSSSDQRQACKKHELYVSFRDLGWQDWIIAPEGYAANYCEGECAFPLNSHMNATNHAIVQTLVHFINPETVPKPCCAPTQLNAISVLYFDDSSNVILKKYRNMVVRACGCH
In turn, B1 showed an EC50 of 1.74 ng/mL.

B2: 471 (ligand)
BMP-7 mature domain: STGGKQRSQNRSKTPKNQEALRMASVAENSSSDQRQACSKHELYVSFRDLGWQDWIIAPEGYAAYYCEGECAFPLNSYMNATNHAIVQTLVHFINPETVPKPCCAPTQLNAISVLYFDDSSNVILKKYRDMVVRACGCH
With B2, the EC50 was found to be 0.755 ng/mL. This EC50 is about 2.3-fold lower than that of the molecule before.

As usually defined, the EC50 is the concentration that produces a half-maximal response. Lower therefore signals a more potent agent.

Source of the values: patent publication US20060058231A1.
